According to patent US10800847:
Values belong to the substance of their own block, whether it stands above or below them.

Columns and labels:
[1] = target: HLA-Cw*0501 (Cw5) (human); test: Luminex, iBeads (#6), 1:4
[2] = target: HLA-Cw*1502 (Cw15) (human); test: Luminex, iBeads (#6), 1:4
[3] = target: HLA-Cw*1601 (Cw16) (human); test: Luminex, iBeads (#6), 1:4
[4] = target: HLA-Cw*0304 (Cw10) (human); test: Luminex, iBeads (#6), 1:4
[5] = target: HLA-Cw*0401 (Cw4) (human); test: Luminex, iBeads (#6), 1:4
[6] = target: HLA-Cw*0702 (Cw7) (human); test: Luminex, iBeads (#6), 1:4
[7] = target: HLA-Cw*1203 (Cw12) (human); test: Luminex, iBeads (#6), 1:4
[8] = target: HLA-Cw*0102 (Cw1) (human); test: Luminex, iBeads (#6), 1:4
[9] = target: Albumin (negative control beads) (human or bovine); test: Luminex, iBeads (#6), 1:4
[10] = target: HLA-Cw*1701 (Cw17) (human); test: Luminex, iBeads (#6), 1:4
[11] = target: HLA-Cw*0302 (Cw10) (human); test: Luminex, iBeads (#6), 1:4
[12] = target: HLA-Cw*0303 (Cw9) (human); test: Luminex, iBeads (#6), 1:4
[13] = target: HLA-Cw*0602 (Cw6) (human); test: Luminex, iBeads (#6), 1:4
[14] = target: HLA-Cw*0202 (Cw2) (human); test: Luminex, iBeads (#6), 1:4
[15] = target: HLA-A*6901 (A69) single antigen on Luminex beads (human); test: Luminex single antigen bead assay, regular beads (#7), IVIg 1:4
[16] = target: HLA-A*7401 (A74) single antigen on Luminex beads (human); test: as above
[17] = target: HLA-A*2902 (A29) single antigen on beads (human); test: Luminex, iBead vs regular bead, IVIg 1:4
[18] = target: HLA-A*6601 (A66) single antigen on beads (human); test: Luminex, iBead vs regular bead, IVIg 1:4
[19] = target: HLA-A*3301 (A33) single antigen on beads (human); test: Luminex, iBead vs regular bead, IVIg 1:4
[20] = target: HLA-A*3401 (A34) single antigen on beads (human); test: Luminex, iBead vs regular bead, IVIg 1:4
[21] = target: HLA-A*3002 (A30) single antigen on beads (human); test: Luminex, iBead vs regular bead, IVIg 1:4
[22] = target: HLA-A*6602 (A66) single antigen on beads (human); test: Luminex, iBead vs regular bead, IVIg 1:4
[23] = target: HLA-A*3201 (A32) single antigen on beads (human); test: Luminex, iBead vs regular bead, IVIg 1:4
HLA-B*0702 (B7) (human) = test: iBead MFI against regular-bead MFI, IVIg diluted 1:4
HLA-B*1513 (B77) (human) = test: as above
HLA-B*1402 (B65) (human) = test: as above
HLA-B*1302 (B13) (human) = test: as above
HLA-B*1516 (B63) (human) = test: as above
HLA-B*1512 (B76) (human) = test: as above
HLA-B*1511 (B75) (human) = test: as above
HLA-B*1401 (B64) (human) [24] = test: as above
[25] = target: HLA-Cw*0501 (Cw5) (human); test: Luminex, iBead vs regular bead MFI, 1:4
[26] = target: HLA-Cw*1502 (Cw15) (human); test: Luminex, iBead vs regular bead MFI, 1:4
[27] = target: HLA-Cw*1402 (Cw14) (human); test: Luminex, iBead vs regular bead MFI, 1:4
[28] = target: HLA-Cw*0304 (Cw10) (human); test: Luminex, iBead vs regular bead MFI, 1:4
[29] = target: HLA-Cw*0401 (Cw4) (human); test: Luminex, iBead vs regular bead MFI, 1:4
[30] = target: HLA-Cw*0702 (Cw7) (human); test: Luminex, iBead vs regular bead MFI, 1:4
[31] = target: HLA-Cw*1203 (Cw12) (human); test: Luminex, iBead vs regular bead MFI, 1:4
[32] = target: HLA-Cw*0102 (Cw1) (human); test: Luminex, iBead vs regular bead MFI, 1:4
[33] = target: HLA-Cw*0801 (Cw8) (human); test: Luminex, iBead vs regular bead MFI, 1:4
[34] = target: HLA-Cw*1701 (Cw17) (human); test: Luminex, iBead vs regular bead MFI, 1:4
[35] = target: HLA-Cw*0302 (Cw10) (human); test: Luminex, iBead vs regular bead MFI, 1:4
[36] = target: HLA-Cw*0303 (Cw9) (human); test: Luminex, iBead vs regular bead MFI, 1:4
[37] = target: HLA-Cw*0602 (Cw6) (human); test: Luminex, iBead vs regular bead MFI, 1:4
HLA-B*8201 (B82) (human) = test: Luminex, regular beads (#7), 1:4
[38] = target: HLA-Cw*0401 (Cw4) (human); test: Luminex, regular beads (#7), 1:4
[39] = target: HLA-Cw*0303 (Cw9) (human); test: Luminex, regular beads (#7), 1:4
HLA-B*1401 (B64) (human) [40] = test: Luminex iBeads (#6), IVIg diluted 1:8

MFI [1]: 710 MFI
MFI [2]: 458 MFI
MFI [3]: 613 MFI
MFI [4]: 520 MFI
MFI [5]: 601 MFI
MFI [6]: 746 MFI
MFI [7]: 636 MFI
MFI [8]: 511 MFI
MFI [9]: 667 MFI
MFI [10]: 1050 MFI
MFI [11]: 522 MFI
MFI [12]: 500 MFI
MFI [13]: 627 MFI
MFI [14]: 719 MFI
MFI [15]: 470 MFI
MFI [16]: 0 MFI
Difference % (iBead MFI vs regular bead MFI) [17]: 366%
Difference % (iBead MFI vs regular bead MFI) [18]: 742%
Difference % (iBead MFI vs regular bead MFI) [19]: 270%
Difference % (iBead MFI vs regular bead MFI) [20]: 80%
Difference % (iBead MFI vs regular bead MFI) [21]: 202%
Difference % (iBead MFI vs regular bead MFI) [22]: 111%
Difference % (iBead MFI vs regular bead MFI) [23]: 202%
Difference % (iBead vs regular bead) (HLA-B*0702 (B7) (human)): 41%
Difference % (iBead vs regular bead) (HLA-B*1513 (B77) (human)): -19%
Difference % (iBead vs regular bead) (HLA-B*1402 (B65) (human)): -36%
Difference % (iBead vs regular bead) (HLA-B*1302 (B13) (human)): 5%
Difference % (iBead vs regular bead) (HLA-B*1516 (B63) (human)): -5%
Difference % (iBead vs regular bead) (HLA-B*1512 (B76) (human)): 199%
Difference % (iBead vs regular bead) (HLA-B*1511 (B75) (human)): -13%
Difference % (iBead vs regular bead) (HLA-B*1401 (B64) (human) [24]): -67%
Difference % [25]: -42%
Difference % [26]: -41%
Difference % [27]: -59%
Difference % [28]: -38%
Difference % [29]: -62%
Difference % [30]: -62%
Difference % [31]: -35%
Difference % [32]: -49%
Difference % [33]: -42%
Difference % [34]: -29%
Difference % [35]: -49%
Difference % [36]: -29%
Difference % [37]: -60%
MFI (HLA-B*8201 (B82) (human)): 639 MFI
MFI [38]: 1570 MFI
MFI [39]: 703 MFI
Substance: IVIg Sandoglobulin (Novartis, Basel, Switzerland) (antibody)

MFI (HLA-B*1401 (B64) (human) [40]): 269 MFI
Substance: IVIg GamaSTAN S/D (Talecris Biotherapeutics, USA) (antibody)
